Here are results for 1 substance from patent US11447550B2, “Peptides for molecular detection of PD-L1” (THE CURATORS OF THE UNIVERSITY OF MISSOURI, priority 2016, dated 2022).

Assay [1] addresses T1, PD-L1 (Homo sapiens, UniProt Q9NZQ7). Briefly: Peptide library study of stability and PD-L1 affinity. It is filed as binding. As to conditions: library of synthesized peptides. Here is the method:
Initial research was focuses on understanding the interaction of PD-1 and PD-L1 based on X-ray crystal structure data (FIG. 14) with the goal of identifying the peptide sequence that is selectively mediating the interactions. After the crystal structure of each protein was identified, a proprietary Fortran program was used to analyze which amino acid sequences interact most closely between the two proteins. Number of occurrences for each sequence was calculated and used to identify the peptide sequences used in this study. […] As a first step, a library of peptides was synthesized and the stability and PD-L1 affinity was studied. […] Data related to anti-PD-L1 and mock peptide was used to synthesize peptides for this study. The binding sequences of each peptide were further modified to incorporate either biotin or fluorophore for antigen detection, and to increase solubility of the peptide.

In assay [2] the target is T1, PD-L1. Briefly: Flow cytometry using cultured cell lines with Cy5-conjugated peptide. It is filed as cell-based. The arrangement: Seven PD-L1 expressing NSCLC patient tissues were obtained from the MU OneHealth tissue bank; tissue MU OneHealth tissue bank; U.S. Biomax (TMA) LC1923; host or cells: FFPE placenta, seven NSCLC patient tissues, 192-case lung cancer tissue microarray, four Hodgkin's lymphoma cases. The conditions noted are these: for MFI relative to MDA-MB-231: all lower peptide concentrations, FIG. 6A. Here is the method: Cell lines MDA-MB-231, Y79, and MCF-7 were purchased from ATCC, thawed, and grown in culture to confluency. When confluent, adherent cells were removed from the flask by scraping gently with a cell scraper and media removed using centrifugation. Suspension cells were pipetted from the flask and centrifuged to remove media. Cell lines were resuspended in Eppendorf tubes in 100 μL PBS at a concentration of 5×10^6 cells per mL. Cy5-conjugated peptide solution was then added to the tubes to make the desired concentration of peptide in 200 μL. Eppendorf tubes were then placed in the incubator for 1 hour and vortexed at the 30-minute mark. After 1 hour, cell lines were analyzed on a BD FACS Canto II, a 3-laser, 8-color flow cytometer (San Jose, Calif.) using Diva 8.0 acquisition and analysis software (San Jose, Calif.). The cells of interest were gated using Forward and Side scatter (FSC/SSC) and positive antibody expression. 10,000 singlet events were collected for each specimen.
RK-10-Cy5 was then investigated for PD-L1 specificity using flow cytometry in cultured cell lines and patient tissues. […] To set our conditions for flow cytometry, titrations of PD-L1 peptide using all three cell lines were first examined. In each of the samples double-positives were selected by analyzing expression of both cytokeratin (FITC channel) and PD-L1 (Cy5 channel) (FIG. 15). […] Samples containing 0.1 and 0.05 mg/mL concentrations were deemed to have fluorescence intensities too high for accurate analysis for each cell line. Y79 and MCF7 both have a much lower PD-L1 expression than MDA-MB-231, which correlates with expression seen using Cy5 conjugated peptide and comparing the cell lines with flow cytometry. […] The MCF7 sample containing 0.005 mg/ml was much higher than anticipated due to this sample being treated twice with peptide. 0.005 mg/mL was selected as optimal concentration based on these comparisons, and all subsequent flow cytometry experiments were performed using this concentration. Lung cancer cell lines A549 (low PD-L1) and HCC827 (high PD-L1) were investigated for PD-L1 expression using both phycoerythrin-conjugated cd274 and RK-10-Cy5 (FIG. 6B). Cell lines were cultured as before and treated with either antibody or peptide in buffer. […] The antibody associated fluorescence was higher than the peptide associated fluorescence in both samples, which is attributed to differences in titrating peptide and antibody.
(In flow cytometry, cells or beads pass a laser one at a time.)

Assay [3] addresses T1, PD-L1. The experiment in a line: Flow cytometry using patient tissues and whole blood. It is filed as cell-based. The arrangement: Seven PD-L1 expressing NSCLC patient tissues were obtained from the MU OneHealth tissue bank; tissue MU OneHealth tissue bank; U.S. Biomax (TMA) LC1923; host or cells: FFPE placenta, seven NSCLC patient tissues, 192-case lung cancer tissue microarray, four Hodgkin's lymphoma cases. Here is the method: Cases were evaluated using flow cytometry for suspected hematopoietic neoplasms. A portion of each fresh specimen was collected into RPMI. […] Any erythrocytes within the specimens were lysed with BD PharmLyse (San Jose, Calif.) and the specimens were washed with BD Staining Buffer with BSA (San Jose, Calif.). Each sample was evaluated using BD FACSCanto II, a three laser, eight-color flow cytometer (San Jose, Calif.) within 24 hours of collection. 50,000 events were collected for each sample. The expression data were analyzed using BD FACSDiva software, version 8.0 (San Jose, Calif.). Cases diagnosed as non-hematopoietic tumors were further subjected to evaluation with PDL-1 peptide if material was available combined with CK to identify the epithelial component. The cell suspensions were stained with 10 μl of BD Cytokeratin FITC (clone CAM5.2), 20 μl of Cy5-conjugated peptide solution, and 10 μl of BD Pharmingen CD274 PE (clone MIH1), incubated in the dark for 30 minutes, washed with BD Stain Buffer with BSA, and reconstituted to 500 μl with Stain Buffer with BSA in […] polystyrene tubes for analysis. The specimens were analyzed on the FACS Canto II using the same panel template, gating strategy, and collection events as the cell line specimens.
PD-L1 expression in patient tissues was analyzed using RK-10-Cy5 and compared to expression in MDA-MB-231 cells and a negative control of normal blood (FIG. 7A). The MFI of the MDA-MB-231 cells was 9,448, while the whole blood gave an MFI of −123. Squamous cell carcinoma and metastatic melanoma samples were investigated for PD-L1 expression using the previously mentioned MFIs as high and negative, respectively. The squamous cell carcinoma was shown as having an MFI of 107,808, while the melanoma sample gave an MFI of 1,250. […] Since […] is consistent with circulating tumor cells, it was thought that RK-10-Cy5 peptide could be used to detect CTCs. To see whether detection of low cell counts was possible, whole blood samples were spiked with MDA-MB-231 cells. MDA-MB-231 were diluted with whole blood, then treated with RK-10-Cy5 and cytokeratin before staining. These samples were also treated with a phycoerythrin-conjugated antibody (cd274) against PD-L1 to further verify PD-L1 detection. Positive signals were detected of cytokeratin and PD-L1 expression at low counts of ˜15 cells in 1 mL whole blood sample using both the peptide and the antibody (FIG. 7B).

Ends that are not written are not given here.

T1 sequence (Q9NZQ7 19-290): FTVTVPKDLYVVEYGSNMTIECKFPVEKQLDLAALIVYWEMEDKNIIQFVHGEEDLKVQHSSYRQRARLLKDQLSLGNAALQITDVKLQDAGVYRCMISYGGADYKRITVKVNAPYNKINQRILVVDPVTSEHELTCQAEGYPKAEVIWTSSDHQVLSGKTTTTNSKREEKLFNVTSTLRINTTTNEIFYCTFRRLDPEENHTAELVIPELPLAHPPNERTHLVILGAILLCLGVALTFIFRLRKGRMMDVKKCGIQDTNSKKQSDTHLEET

Regarding “Cy5-GSGSGSTYLCGAISLAPKAQIKESL [RK-10-Cy5]”, in the assay with PD-L1 [1], the PD-L1 affinity entry is reported as “high affinity”. The “MFI relative to MDA-MB-231” value with PD-L1 [2] (MCF7 cells (no meaningful PD-L1 expression)) and in the assay with PD-L1 [2] (Y79 cells (no meaningful PD-L1 expression)) was “close to tenfold lower” in each case. The “mean fluorescence intensity (MFI)” value in the assay with PD-L1 [2] (MDA-MB-231 cells (very high PD-L1), Cy5 channel, 0.005 mg/mL peptide, FIG. 7A) is on record as 9,448; in the assay with PD-L1 [3] (metastatic melanoma patient sample), 1,250; with PD-L1 [3] (normal whole blood (negative control), FIG. 7A), −123; in the assay with PD-L1 [3] (squamous cell carcinoma patient sample), 107,808. Further, the “signal associated with PD-L1 expression, HCC827 versus A549” value with PD-L1 [2] (lung cancer lines HCC827 (high PD-L1) vs A549 (low PD-L1), FIG. 6B) is “much higher signal”. Further, the “low cell count at which positive cytokeratin and PD-L1 signals were detected” value with PD-L1 [3] (whole blood spiked with MDA-MB-231 cells, FIG. 7B) is recorded as ~15 cells in 1 mL whole blood.
